In article PMC6168507 (2018):

Target: LRP-1 (Homo sapiens, UniProt Q07954)
Experiment: ELISA

Chain of LRP-1 (Q07954 20-4544): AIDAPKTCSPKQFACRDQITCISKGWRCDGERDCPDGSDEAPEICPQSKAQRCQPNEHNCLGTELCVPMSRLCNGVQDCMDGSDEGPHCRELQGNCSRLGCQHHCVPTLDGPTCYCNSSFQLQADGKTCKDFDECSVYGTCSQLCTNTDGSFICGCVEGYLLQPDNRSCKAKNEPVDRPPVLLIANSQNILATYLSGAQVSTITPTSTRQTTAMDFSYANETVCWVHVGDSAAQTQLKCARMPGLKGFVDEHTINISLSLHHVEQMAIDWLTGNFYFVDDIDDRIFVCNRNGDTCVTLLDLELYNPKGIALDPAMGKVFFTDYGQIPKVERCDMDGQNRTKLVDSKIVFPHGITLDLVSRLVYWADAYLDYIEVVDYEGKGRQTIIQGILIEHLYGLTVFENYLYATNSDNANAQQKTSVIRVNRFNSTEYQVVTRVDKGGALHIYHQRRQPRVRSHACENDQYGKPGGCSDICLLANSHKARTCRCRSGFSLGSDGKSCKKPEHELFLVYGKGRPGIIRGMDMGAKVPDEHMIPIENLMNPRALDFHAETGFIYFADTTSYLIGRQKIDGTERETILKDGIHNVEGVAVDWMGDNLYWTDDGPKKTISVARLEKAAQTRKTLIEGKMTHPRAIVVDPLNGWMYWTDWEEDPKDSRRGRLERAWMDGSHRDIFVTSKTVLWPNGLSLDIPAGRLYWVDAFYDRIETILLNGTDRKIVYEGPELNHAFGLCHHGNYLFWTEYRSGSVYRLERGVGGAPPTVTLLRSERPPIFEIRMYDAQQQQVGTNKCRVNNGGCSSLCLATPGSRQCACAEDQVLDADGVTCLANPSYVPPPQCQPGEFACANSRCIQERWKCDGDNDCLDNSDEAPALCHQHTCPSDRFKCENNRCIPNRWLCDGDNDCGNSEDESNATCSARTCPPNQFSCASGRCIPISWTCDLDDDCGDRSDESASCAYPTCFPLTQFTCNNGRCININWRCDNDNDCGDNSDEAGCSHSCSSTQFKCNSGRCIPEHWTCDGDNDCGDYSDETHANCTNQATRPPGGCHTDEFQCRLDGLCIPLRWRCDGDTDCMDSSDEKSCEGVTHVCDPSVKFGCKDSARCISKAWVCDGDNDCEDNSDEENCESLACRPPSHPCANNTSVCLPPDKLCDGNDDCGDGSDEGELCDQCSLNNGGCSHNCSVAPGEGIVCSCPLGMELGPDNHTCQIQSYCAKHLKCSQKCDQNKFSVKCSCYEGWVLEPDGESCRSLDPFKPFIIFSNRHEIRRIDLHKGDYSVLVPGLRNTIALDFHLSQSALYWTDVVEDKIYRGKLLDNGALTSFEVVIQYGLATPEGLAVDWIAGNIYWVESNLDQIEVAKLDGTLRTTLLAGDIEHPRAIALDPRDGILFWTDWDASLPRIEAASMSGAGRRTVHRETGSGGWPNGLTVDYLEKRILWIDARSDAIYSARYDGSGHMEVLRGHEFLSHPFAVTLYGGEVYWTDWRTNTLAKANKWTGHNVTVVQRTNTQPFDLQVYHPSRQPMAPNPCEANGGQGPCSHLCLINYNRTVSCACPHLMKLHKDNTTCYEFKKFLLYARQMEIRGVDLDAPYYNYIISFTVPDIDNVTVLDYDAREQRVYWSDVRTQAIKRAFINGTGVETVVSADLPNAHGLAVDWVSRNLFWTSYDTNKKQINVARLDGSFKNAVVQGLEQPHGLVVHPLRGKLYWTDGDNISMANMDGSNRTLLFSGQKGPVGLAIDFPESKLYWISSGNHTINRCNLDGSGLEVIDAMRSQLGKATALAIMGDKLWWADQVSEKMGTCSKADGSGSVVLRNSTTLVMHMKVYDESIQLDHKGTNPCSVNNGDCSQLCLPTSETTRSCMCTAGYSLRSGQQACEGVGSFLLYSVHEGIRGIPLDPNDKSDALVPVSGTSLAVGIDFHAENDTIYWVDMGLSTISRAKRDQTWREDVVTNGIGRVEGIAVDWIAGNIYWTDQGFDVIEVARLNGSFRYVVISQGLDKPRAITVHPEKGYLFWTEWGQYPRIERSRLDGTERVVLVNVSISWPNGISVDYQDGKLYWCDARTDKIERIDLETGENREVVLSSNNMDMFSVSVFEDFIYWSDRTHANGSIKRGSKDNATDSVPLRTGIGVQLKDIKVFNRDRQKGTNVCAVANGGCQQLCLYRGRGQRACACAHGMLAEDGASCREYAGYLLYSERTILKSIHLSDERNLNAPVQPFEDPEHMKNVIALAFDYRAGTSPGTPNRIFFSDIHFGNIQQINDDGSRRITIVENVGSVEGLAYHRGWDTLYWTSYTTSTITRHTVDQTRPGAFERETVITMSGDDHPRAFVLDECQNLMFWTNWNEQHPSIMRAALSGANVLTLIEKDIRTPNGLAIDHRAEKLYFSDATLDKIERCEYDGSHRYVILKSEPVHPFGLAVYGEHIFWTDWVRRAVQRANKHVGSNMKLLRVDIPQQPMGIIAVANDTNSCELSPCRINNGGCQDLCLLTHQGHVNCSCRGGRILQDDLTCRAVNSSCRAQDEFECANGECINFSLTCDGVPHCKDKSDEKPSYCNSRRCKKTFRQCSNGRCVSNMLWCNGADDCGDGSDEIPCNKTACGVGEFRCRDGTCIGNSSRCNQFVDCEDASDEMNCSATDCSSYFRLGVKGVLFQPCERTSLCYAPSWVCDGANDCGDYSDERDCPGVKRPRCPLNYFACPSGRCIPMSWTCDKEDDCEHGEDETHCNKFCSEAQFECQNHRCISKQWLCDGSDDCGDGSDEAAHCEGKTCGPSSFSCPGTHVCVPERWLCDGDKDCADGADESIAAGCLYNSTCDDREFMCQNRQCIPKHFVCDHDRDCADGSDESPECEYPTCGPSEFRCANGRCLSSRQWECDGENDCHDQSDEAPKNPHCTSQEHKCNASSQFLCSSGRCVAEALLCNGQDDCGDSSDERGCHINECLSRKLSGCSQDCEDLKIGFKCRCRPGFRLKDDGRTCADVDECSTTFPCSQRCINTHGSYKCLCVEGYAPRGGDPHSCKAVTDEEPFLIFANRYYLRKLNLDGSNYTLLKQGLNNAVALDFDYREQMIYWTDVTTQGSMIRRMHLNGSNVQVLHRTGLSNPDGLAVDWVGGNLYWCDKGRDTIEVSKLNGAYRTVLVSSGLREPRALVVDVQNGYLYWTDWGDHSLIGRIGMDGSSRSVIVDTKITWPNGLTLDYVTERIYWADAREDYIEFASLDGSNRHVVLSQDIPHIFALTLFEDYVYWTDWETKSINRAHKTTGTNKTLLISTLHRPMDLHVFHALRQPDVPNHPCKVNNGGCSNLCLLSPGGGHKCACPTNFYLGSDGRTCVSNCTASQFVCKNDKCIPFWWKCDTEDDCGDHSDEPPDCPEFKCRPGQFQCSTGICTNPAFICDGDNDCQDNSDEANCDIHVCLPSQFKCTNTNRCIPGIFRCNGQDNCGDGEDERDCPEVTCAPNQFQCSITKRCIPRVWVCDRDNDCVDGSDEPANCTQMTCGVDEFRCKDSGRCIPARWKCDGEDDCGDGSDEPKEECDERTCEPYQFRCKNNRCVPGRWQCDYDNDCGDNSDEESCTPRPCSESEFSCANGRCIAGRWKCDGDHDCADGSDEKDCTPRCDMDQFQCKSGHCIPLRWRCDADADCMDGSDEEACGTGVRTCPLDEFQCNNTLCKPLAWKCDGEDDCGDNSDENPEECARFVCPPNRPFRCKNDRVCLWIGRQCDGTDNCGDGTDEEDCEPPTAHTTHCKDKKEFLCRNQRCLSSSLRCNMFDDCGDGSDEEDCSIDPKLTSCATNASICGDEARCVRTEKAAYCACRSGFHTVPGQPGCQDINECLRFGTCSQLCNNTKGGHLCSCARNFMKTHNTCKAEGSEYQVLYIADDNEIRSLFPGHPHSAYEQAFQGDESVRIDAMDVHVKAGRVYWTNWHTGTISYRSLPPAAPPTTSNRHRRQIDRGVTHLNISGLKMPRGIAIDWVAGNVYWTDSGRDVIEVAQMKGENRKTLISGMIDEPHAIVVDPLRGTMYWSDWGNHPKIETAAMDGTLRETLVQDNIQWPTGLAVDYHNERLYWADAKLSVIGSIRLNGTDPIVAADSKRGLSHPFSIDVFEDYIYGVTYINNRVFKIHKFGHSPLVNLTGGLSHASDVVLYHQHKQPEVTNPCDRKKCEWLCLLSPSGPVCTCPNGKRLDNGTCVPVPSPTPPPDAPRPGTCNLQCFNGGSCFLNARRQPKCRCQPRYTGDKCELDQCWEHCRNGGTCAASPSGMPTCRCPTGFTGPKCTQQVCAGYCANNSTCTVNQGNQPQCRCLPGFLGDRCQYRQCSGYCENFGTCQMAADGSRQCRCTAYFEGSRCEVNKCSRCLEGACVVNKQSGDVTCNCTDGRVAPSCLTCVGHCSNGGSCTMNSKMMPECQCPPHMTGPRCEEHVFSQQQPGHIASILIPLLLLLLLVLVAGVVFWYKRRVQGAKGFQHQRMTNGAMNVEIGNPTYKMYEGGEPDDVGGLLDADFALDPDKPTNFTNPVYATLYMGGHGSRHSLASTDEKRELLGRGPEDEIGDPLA

Kd: 0.016 µM
B1: TIMP-1 (protein)
chain: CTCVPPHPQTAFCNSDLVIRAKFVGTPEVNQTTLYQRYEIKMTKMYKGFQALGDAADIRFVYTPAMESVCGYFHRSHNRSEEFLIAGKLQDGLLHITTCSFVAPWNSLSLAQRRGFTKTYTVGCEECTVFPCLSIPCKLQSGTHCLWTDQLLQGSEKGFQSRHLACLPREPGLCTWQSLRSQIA
